According to US7981843:
One block for each molecule: values may come before it.

Columns and labels:
[1] = target: PcrV of Pseudomonas aeruginosa strain PA103 (native, on the bacteria) (Pseudomonas aeruginosa); experiment: cell-based or functional assay
[2] = target: GST-PcrV fusion protein (Pseudomonas aeruginosa) [GST: P08515]; experiment: dilution ELISA, purified Fab in twofold series in duplicate on plates coated with GST-PcrV, TMB A450 (upper chart)
[3] = target: GST-PcrV fusion protein (Pseudomonas aeruginosa) [GST: P08515]; experiment: SPR, Biacore 3000, GST-PcrV amine-coupled to CM4 chip, Fab in solution

Molecule: Mab 166 whole IgG (antibody)
IC50, inhibition of Pseudomonas-mediated (TTSS exotoxin-dependent) cytotoxicity to P3-X63-Ag8 cells, propidium iodide flow cytometry [1]: 93 nM

EC50 (read off the curve) [2]: 6 nM
Kd [3]: 1.1 nM
koff [3]: 0.00026 s⁻¹
kon [3]: 249000 M⁻¹ s⁻¹
B1: Murine Fab M166 (Fab, from another filing, V domains shown)
VH: QVQLKQSGPGLVQPSQSLSITCTVSGFSLTSYGVHWVRQSPGKGLEWLGVIWSGGDTDYNAAFISRLSISKDNSKSQLFFKMNSLRATDTAIYYCARNRGDIYYDFTYAMDYWGQGTSVTVSS
VL: DIQMTQSPASLSASVGETVTITCRASGNIQNYLAWYQQTQGKSPQLLVYSAKTLADGVPSRFSGSGSGTQYSLKINSLQPEDFGSYYCQHFWSTPYTFGGGTKLEIKR
